Experimental data taken from US20250257368A1 (FLAGSHIP PIONEERING INNOVATIONS V, published 2025).

Biological target: the molecule itself
Experiment: self-assembly into virus-like particles, negative staining electron microscopy

B1: Ring2 ORF1 protein expressed as a full-length protein in insect cells (other)
chain: MPYYYRRRRYNYRRPRWYGRGWIRRPFRRRFRRKRRVRPTYTTIPLKQWQPPYKRTCYIKGQDCLIYYSNLRLGMNSTMYEKSIVPVHWPGGGSFSVSMLTLDALYDIHKLCRNWWTSTNQDLPLVRYKGCKITFYQSTFTDYIVRIHTELPANSNKLTYPNTHPLMMMMSKYKHIIPSRQTRRKKKPYTKIFVKPPPQFENKWYFATDLYKIPLLQIHCTACNLQNPFVKPDKLSNNVTLWSLNTISIQNRNMSVDQGQSWPFKILGTQSFYFYFYTGANLPGDTTQIPVADLLPLTNPRINRPGQSLNEAKITDHITFTEYKNKFTNYWGNPFNKHIQEHLDMILYSLKSPEAIKNEWTTENMKWNQLNNAGTMALTPFNEPIFTQIQYNPDRDTGEDTQLYLLSNATGTGWDPPGIPELILEGFPLWLIYWGFADFQKNLKKVTNIDTNYMLVAKTKFTQKPGTFYLVILNDTFVEGNSPYEKQPLPEDNIKWYPQVQYQLEAQNKLLQTGPFTPNIQGQLSDNISMFYKFYFKWGGSPPKAINVENPAHQIQYPIPRNEHETTSLQSPGEAPESILYSFDYRHGNYTTTALSRISQDWALKDTVSKITEPDRQQLLKQALECLQISEETQEKKEKEVQQLISNLRQQQQLYRERIISLLKDQ
notes: also called Anellovirus ORF1 protein
binding result: binds
